This data set can be described thus: yeast display, Sf9 membrane polyspecificity reagent, FACS + sequencing; frameworks hold sequencing errors. Summed up:
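After 36–48 hours of galactose induction, yeast (Saccharomyces cerevisiae BJ5465) displaying a synthetic nanobody library were stained at 4 °C for 1 hour with 10% biotinylated, detergent-solubilized Sf9 membrane reagent. Streptavidin microbeads enriched the stained cells before FACS sorting into low and high (top ~1%) gates on anti-HA and streptavidin fluorescence. Each clone's polyreactivity label reflects its gate of origin.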
Take “QVQLVESGAGLVQAGGRLRLSCGASGRIFGRNAMGLYRQGPGKERELVAAISYSGGSTYYADSVKGRFTISRDNAKNTVYLQMNSLKPEDTAVYYCAARYTRSGYYWGQGTQVTVSS”: the “polyreactivity (PSR sort gate)” value is reported as “high polyreactivity”.
For “QVQLVESGAGLVQAGGSHRLSCAASGRNFYWNARGWYRQAPGKEREFVAAISWSGGSTYADSVKGRFTISRDNAKNTVYLQMNSLKPEDTAVYYCAIRVSRSFRAYDYWGQGTQVTVSS” the value was “high polyreactivity”.
For “QVQLVESGAGLVQAGGSILLICAASGLTFYKNAMGWYRQAPAKERELVAVISSSGGSTYYADSVKGRFTISRDNAKNTVYLQMNSLKPEDTAVYYCARDLFTEYRWGLLTYDYWGQGTQVTVSS” the value was “low polyreactivity”; for “QVQLVESGAGLVQAGGSLRLSCAANTKGSYRQAPGKETELVAAINTGSSTYYADSVKGRFTISRDNAKNTVYLQMNSLKPEDTSVYYCNASYPQYLEYRTRQYNYWVQGTQVTVSS”, “low polyreactivity”.
For “QVQLVESGAGLVQAGGSLRLSCAASGFIFARYAMGWSRQAPGKERELVAAITRGGGSTYYADSVKGRFTISRDTAKNTVYLQMNSLKPEDTAVYYCAAENGALVTYGYWGQGTQVTVSS” the value was “high polyreactivity”; for “QVQLVESGAGLVQAGGSLRLSCAASGFSFQSYTMGWSRQAPGKERELVAAISRSGGRTYYADSVKGRFTISRDNAKNTVYLQMTSLKPEDTAVYYCAVDYRTRVDYWGQGTQLTVSS”, “high polyreactivity”; for “QVQLVESGAGLVQAGGSLRLSCAASGFTFAKYAMGWYRQAPGKERELVATIRRSDDNTYYADSVKGRFTISRDNAKNTVYLQMNSLKPEDTAVYYCATGYYALYSRKPYKYNYWGQGTQVTVSS”, “high polyreactivity”.
Consider “QVQLVESGAGLVQAGGSLRLSCAASGFTFQNYAMGWYRQAPGKERELVAAIDSRGGRTYYADSVKGRFTISRDNAKNSVYLQMNSLKPEDTAVYYCAVAENKRFGSVGYYYWGQGTQVTVSS”, for which the “polyreactivity (PSR sort gate)” value is reported as “low polyreactivity”.
In the case of “QVQLVESGAGLVQAGGSLRLSCAASGFTFRYYAMGWYRQAPGKERELVATISASSGSTYYADSVKGRFTISRDNAKNTVYLQMNSLKPEDTAVYYGAKEPLASGWGYDYWGQGTQVTVSS” it was “high polyreactivity”.
Consider “QVQLVESGAGLVQAGGSLRLSCAASGHTFYYNTMGLYRQAPGKERELVAVISWSGSRTYYADSVKGRFTISRDYAKNTVYLQMNSLKPEDTAVSYCNAVYSHRREYWGEGTQVTVSS”, for which the “polyreactivity (PSR sort gate)” value was “high polyreactivity”.
For “QVQLVESGAGLVQAGGSLRLSCAASGITFAYYAMGWYRQAPGKERELVAAIRGGTNTYYADSVKGSYTISRDNAKNTVYFLMNSLKPEDTAVYYCAARRSSHWFTYDYWGQGTLVTVSS” the value was “high polyreactivity”; for “QVQLVESGAGLVQAGGSLRLSCAASGITFRGYAMGWYRQAPGKERELVAAISSRGGSTYYADSVMGRFTISRDNAKNTVYLQMNSLKPEDTAVYYCNAVSGLYFTYTYDYWGQGTQVTVSS”, “high polyreactivity”; for “QVQLVESGAGLVQAGGSLRLSCAASGRIFYWYAMGWYRQAPGKERELVAAIRRRVGSTYYADSVKGRFTISRDNAKNTVYLQMNSLKPEDTAVYYCAAVITSDGARYDYWGQGTQVTVSS”, “high polyreactivity”.
For “QVQLVESGAGLVQAGGSLRLSCAASGRIVYYVMGWYRQAPAKEMELVAAISTRGGSTYYADSVKGRFTISRDNAKNTVYLQINSLKPEDTAVYYCAASSLLTRFNSWGQGTQVTVSS” the value was “high polyreactivity”; for “QVQLVESGAGLVQAGGSLRLSCAASGRTFGSNAMGWYRQAPGKERELVAAITRGGSTNYADSVKGRFTISRDNAKNTVYLQMNSLKPEDTAVYYCAKRSYYRYRYYYWGQGTQVSVSS”, “high polyreactivity”; for “QVQLVESGAGLVQAGGSLRLSCAASGRTFRPNPMGWYRPAPWKDRELVASITSGGRTNYADSVKGRFTISRDNAKNTVYLQMNSLKPEDTAVYYCAADHYHGYWKYDYWGQGTQVTVSS”, “low polyreactivity”.

(Values after the nanobody polyreactivity screen of Harvey et al. (2022).)
